In US20240150797A1, “BIOCATALYTICAL PRODUCTION OF DIHYDROCHALCONES” (Symrise AG, priority 2021, published 2024):

Columns and labels:
Type in all cases: biochemical
Settings in all cases: purified CHI in 50 mM PBS, 100 μM substrate, 25° C.
[1] = Specific activity of purified CHI, absorbance decrease at 384 nm, naringenin chalcone
Protocol: (§1) E. coli BL21 (DE3) cells containing one of the pET28b plasmids from Table 2 or Table 3 were used to inoculate 1 L LB medium at OD of 0.1. Cells were incubated at 37° C., 250 rpm until the OD reached 0.4-0.6 and induced by supplementing with 0.1 mM IPTG. After protein expression at 28° C., 250 rpm for 16 h, the cells were harvested by centrifugation at 4,000×g for 15 min. The harvested cells were lysed with 0.5 mg/mL lysozyme (Sigma-Aldrich), 0.4 U/mL Benzonase (Sigma-Aldrich) and BugBuster (Merck) at room temperature for 0.5 h to obtain a crude cell extract. The crude extract was centrifuged at 10,000×g for 30 min to remove the pellet. Recombinant proteins were purified by Ni-affinity chromatography (GE Healthcare). The supernatant of the crude extract was loaded on the column with 20 mM imidazole. The column was washed by 5 column volumes of 30 mM imidazole with 20 mM PBS (pH 7.4) and 500 mM NaCl. The target proteins were eluted by 150 mM imidazole with 20 mM PBS (pH 7.4) and 500 mM NaCl. Buffer exchange with 50 mM PBS (pH 7.5) was achieved by ultrafiltration with Amicon Ultra-15 (Merck). The activity of the respective purified enzyme was determined by measuring the absorbance decrease at 384 nm in the reaction mix (CHI in 50 mM PBS with 100 μM of either naringenin chalcone, hesperetin chalcone, eriodictyol chalcone, homoeriodictyol chalcone or 4-O-methyl butein at 25° C.).

[2] = Specific activity of purified CHI, absorbance decrease at 384 nm, homoeriodictyol chalcone
Protocol: as §1

[3] = Specific activity of purified CHI, absorbance decrease at 384 nm, eriodictyol chalcone
Protocol: as §1

[4] = Specific activity of purified CHI, absorbance decrease at 384 nm, 4-O-methyl butein
Protocol: as §1

[5] = Specific activity of purified CHI, absorbance decrease at 384 nm, hesperetin chalcone
Protocol: as §1

Molecule	Specific activity, Naringenin chalcone [1]	Specific activity, Homoeriodctiol chalcone [2]	Specific activity, Eriodictyol chalcone [3]	Specific activity, 4-O-methyl butein [4]	Specific activity, Hesperetin chalcone [5]
CHI4: Chalcone isomerase from Acetoanaerobium noterae, access no. WP_079589066.1 (protein, listed as Acetoanaerobium noterae) ADFEFNPMRSLIYVDVVKEDYRHMLKHWLYRHHIPDSISQFGPYVTKYAFYPALPTPPEGDRFGTIRMQLTEHYWTVNPFTSNFKNKAFTEFFPIDILKWQGNIPDDSKVAALEGEEVVKLEGDDARASGGDNGCPPFIFAFVPICWEEDFKGSQRTVEDGPNYRWQFVMKYPEGVTMKEGDKWFYEEMIPKFKDMPDVLRILSSKIIQQVNGCPYHRVVEMWFNCPSAWYRSAVEKAKEIKKPSWAKYDVFPYLKPKFEIASLFLTDIAESDNYSQYRGYITMR	46.6	15.2	34.4	0.4	58.5
CHI1: Chalcone isomerase from Fusibacter sp. 3D3, access no. WP_069876268.1 (protein, Fusibacter sp. 3D3) SYVPEFKPMRSFILNNVRSDNDRPKAFRWLYKQHVPESISQFRPYCTKYATYHALPLVEGAEQFGTYNWIMTEHYWNFNIFQDKGLGHSRGLAFTEAYPHDFMEITCQPPSNTLRQSGWQGSAEGYHPIVFCFAPIFWENDFKGSERLTDDGANFRWLFFLSYPEGVTVEEGDQWFLETFAKEAAEMPEVIRFLSSRVMDSPRINPFDRIVELWFDDSEAWHNAMVKNGHLFTKPAWSKVDQFPFFEAYKDITGVFIMDRPDSDHLAQWQGYITTR	21.3	11.3	18.2	0.2	16.7
CHIera: Chalcone isomerase from Eubacterium ramulus (protein, listed as Eubacterium ramulus) ADFKFEPMRSLIYVDCVSEDYRPKLQRWIYKVHIPDSISQFEPYVTKYAFYPSFPIPPQGDRFGYARMQLTEHHWLVSDLDPRLEIKAIAETFPMDVLVWQGQIPAAAHTDAQIDSDGDAGNAARKSNNAEGNPFIFAFLPMWWEKDLKGKGRTIEDGANYRFNMTIGFPEGVDKAEGEKWLFEKVVPILQAAPECTRVLASAVKKDINGCVMDWVLEIWFENQSGWYKVMVDDMKALEKPSWAQQDAFPFLKPYHNVCSAAVADYTPSNNLANYRGYITMR	270.0	44.5	90.7	0.1	31.5
CHI8: Chalcone isomerase from Roseburia sp., access no. SCJ10619.1 (protein, listed as Roseburia sp.) RSLIYVDVAKEQYRVKLNHWLYAVHVPESISKFRPYVSQYAFYNALPVPPLGEQFGTVRMQLTEHYWQVNPMDVSMAVNVFTETFPTEVLIWQGNMPENAIALNYEGDEARSAKVENCNPFVFAFLPISWEEDLKGAGRTMADGPNYRWNFALHYPDGVSVETGDQWFYEKFVPAFLEIPEATRMVTSKIIKEINDCPMDRVVEIWFEGPDQWSAAMEKAKSIEPPEWAQEETFPYLKPYQNIMGVFVADNISSDNLNNHRGYITMR	73.5	22.8	33.9	1.2	19.2
CHI9: Chalcone isomerase from Roseburia sp. OM02-15, access no. WP_118702262.1 (protein, Roseburia sp. OM02-15) GEITYQPLRSLIYVDCVKEEYRHKLQHWLYYYHAPESIAKFEPWVTKYAFYNALPTPPQGERFGTYRMQLTEHYWMVNPMSQESLVNSLNEYFPIDAMIWQGTLPENAKEDGFMADGEAARASGGDNGCPPFIFAFLPIFWEQDLKGAGRTMVDGPNYRWQFLVSYPEGHKEDGDQWMMNEVLPAFAAMPEVTRMMTSKVKKEINNCHMDRCVEMWFDGPEEWYHCAVENAASFKKPEWAEYDNFPYLRPQFQFASLFLTDIATSDNLKQYRGYLPMR	22.7	10.4	69.7	0.4	43.0
CHI6: Chalcone isomerase from Lachnoclostridium sp., access no. HCD45524.1 (protein, listed as Lachnoclostridium sp.) GTEFDPMRSFIYVDVIKEEYRHKLQHWLYFHHIPESISQFEPYCTKYAFYNALPVPEGGERFGTARMQITEHSWLVNIMDPALKVKAFQEYMPIEALKWQGTVPETAGDVLMSGDDARCTGGNNGCMPFVFAFCPMWWEEDVKGAGRTLTEGANYRWNFALTYPEGISKEEGDKWLFEEVFPYFEANNCCTRILTSKVRQEINGCPMYRVVEMWFTGPTAWHHLAVETADKIKSPSWAKDGDVFPYLKSGFEIRGAFVTDYPTCDAYSQYRGYIPRR	16.8	8.1	17.0	0.1	3.3
CHI5: Chalcone isomerase from Parasporobacterium paucivorans, access no. WP_073993359.1 (protein, Parasporobacterium paucivorans) GPEFQPMRSLIYVDCVKEEYRHRLQNWLYHYHVPDSISQFAPYVSKYCFYNALPTPPEGERFGTIRQQLTEHYWMVNPFTEHFKNKALTEYFPCDVLKWQGNIPDDDLEVNFEGDEARSKGGHNGCAPFIFAFLPLCWEEDFKGKERTIENGPNYRWNFVMKYPEGTSMEEGDKWFYEKMIPAFQEMPEVTRILTSKVIQSINGCAFHRVVEMWFDGPNAWYQAAVVKAKNIEKPSWASVDAFPYLQATFEFDGIFLTDYAASDNMSQYRGYLAMR	59.9	19.7	82.7	0.4	84.5
CHI2: Chalcone isomerase from Tepidanaerobacter acetatoxydans, access no. WP_013779275.1 (protein, Tepidanaerobacter acetatoxydans) DTEFKPMRSLIYVGVAKEEYRHKLKNWLYRYHIPDSISQFAPYVTKYAFYNALPVPPEGERFGAYNMQLTEHYWLINPMNPQLKIKAFTEFFPVDVLKWQGNIPDDADADSVNIEGDAARSSGGDNGMPPFIFAFIPFWWEEDFKGAGRTVEDGPNYRWQFLIQYPNGISLEEGDQWFYKKLVPAFKEMPEVNRFLTSRVIRDVNDCQFHRVIEMWFDGPEEWYRAAVEKGKSIERPHWATAEEFPYLKPKFQIASLFLTDIADSDNYSQYRGYITMR	54.8	19.9	25.4	0.8	93.5
